Experimental findings from PMC3429473, “The Weak Complex between RhoGAP Protein ARHGAP22 and Signal Regulatory Protein 14-3-3 Has 1∶2 Stoichiometry and a Single Peptide Binding Mode” (PLoS ONE, 2012) are described below.

For data set [1], the target named is AG22 (1–422) S16D/S411D phosphomimic double mutant (human). The data set can be described thus: cross-linking; AG22 proteins (10 µM) and 14-3-3 (30 µM), alone or mixed, in 50 mM HEPES pH 8.6 with 3 mM BS3 at room temperature for 5 to 30 min; SDS-PAGE, Coomassie Blue.
In data set [2] the target is wild type AG22 (1–422) (human). Described as above.
Data set [3] has as its target T1, AG22 (1–145) S16D (human).
T1 chain: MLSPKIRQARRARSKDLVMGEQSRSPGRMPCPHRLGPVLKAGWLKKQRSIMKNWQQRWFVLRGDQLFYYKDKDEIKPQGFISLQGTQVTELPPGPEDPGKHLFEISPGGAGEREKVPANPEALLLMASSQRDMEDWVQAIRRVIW
Described as above. The conditions noted are these: both partners purified.

Data set [4] concerns the molecule itself. Described as above.
Data set [5] addresses AG22 (1-422) S16D/S411D (human). The data set can be described thus: small-angle X-ray scattering (SAXS) titration; AG22 (1-422) S16D/S411D at 26.5 µM (1.25 mg/mL) pre-mixed with 14-3-3 at molar 14-3-3_(2):AG22 ratios of 0.5:1.0, 1.0:1.0, 1.5:1.0 and 2.0:1.0, about 1 hour on ice, measured at room temperature (295 K); scattering fitted as a linear combination of the profiles of 14-3-3_(2), AG22 and the cross-linked complex; Kd = (W_AG22 x W_14-3-3)/W_Complex for each titration point.

Data set [6] shares this target. Described as above. The source holds these as a separate data set.
In data set [7] the target is AG22 (1–422) S16D/S411D phosphomimic double mutant (human). The data set can be described thus: SAXS titration; AG22 (1–422) S16D/S411D at 26.5 µM (1.25 mg/mL) mixed with 14-3-3 dimer at molar ratios 0.5, 1.0, 1.5 and 2.0; about 1 h on ice; data fitted as linear combinations of the profiles of the two proteins and of the cross-linked complex; Kd counted on the 14-3-3 dimer.

Data set [8] deals with AG22 (1-422) S16D/S411D (human). The data set can be described thus: small-angle X-ray scattering (SAXS) titration; AG22 (1-422) S16D/S411D at 26.5 µM (1.25 mg/mL) pre-mixed with 14-3-3 at molar 14-3-3_(2):AG22 ratios of 0.5:1.0, 1.0:1.0, 1.5:1.0 and 2.0:1.0, about 1 hour on ice, measured at room temperature (295 K); scattering fitted as a linear combination of the profiles of 14-3-3_(2), AG22 and the cross-linked complex; Kd = (W_AG22 x W_14-3-3)/W_Complex for each titration point. The source holds these as a separate data set.

Data set [9] deals with AG22 (1–422) S16D/S411D phosphomimic double mutant (human). The data set can be described thus: cross-linking + SEC; 1:2 mixture cross-linked with BS3 for 30 min in 50 mM Hepes pH 8.6, purified by gel filtration, then analytical Superdex S200 10/300GL in 25 mM HEPES pH 7.5, 150 mM NaCl, 2 mM β-ME.

Read-outs that look alike come from different tables or passages of the source.

B1: human 14-3-3 β (natural protein)
chain: MTMDKSELVQKAKLAEQAERYDDMAAAMKAVTEQGHELSNEERNLLSVAYKNVVGARRSSWRVISSIEQKTERNEKKQQMGKEYREKIEAELQDICNDVLELLDKYLIPNATQPESKVFYLKMKGDYFRYLSEVASGDNKQTTVSNSQQAYQEAFEISKKEMQPTHPIRLGLALNFSVFYYEILNSPEKACSLAKTAFDEAIAELDTLNEESYKDSTLIMQLLRDNLTLWTSENQGDEG
notes: human 14-3-3 β isoform, codon-optimized synthetic gene (GeneArt) in pET20b; calculated monomer mass 29.3 kDa; the printed monomer mass of 29.3 kDa would fit the whole protein with the tag; Dimer by cross-linking and SAXS; also called 14-3-3_(2); 14-3-3 β isoform; not shown: His6, C-terminal, kept
For the molecule B1, the stoichiometry N (14-3-3 chains per AG22 molecule) in data set [1], in [2] and in [9] was 2 in each case. The “stoichiometry N” value was 2 14-3-3 chains per AG22 molecule in data set [3] and 2 in data set [4]. The Kd in data set [5] came out at 27.4 µM; in data set [5] (record 2), 30.6 µM; in [6], 20.9 µM; in data set [7], 28 µM; in data set [8] it was 34.2 µM.

One may read the stoichiometry N as a count of units in the complex or per binding partner. What is called Kd is the constant that tells how readily two partners part at equilibrium.
